From patent US20230002481A1 (Chugai, published 2023)

Key:
[1] = biological target: T1, recombinant cyno C1r2s2 His/Flag tetramer (cynomolgus monkey, limits assumed); experiment: SPR (Biacore), pH5.8*: dissociation at pH5.8 after association and dissociation at pH7.4, 37 C, Scrubber fit
T1 construct: Heterotetramer of two C1r-His and two C1s-Flag chains, co-expressed in FreeStyle293-F cells; also called cyno C1r2s2s
T1 chain 1: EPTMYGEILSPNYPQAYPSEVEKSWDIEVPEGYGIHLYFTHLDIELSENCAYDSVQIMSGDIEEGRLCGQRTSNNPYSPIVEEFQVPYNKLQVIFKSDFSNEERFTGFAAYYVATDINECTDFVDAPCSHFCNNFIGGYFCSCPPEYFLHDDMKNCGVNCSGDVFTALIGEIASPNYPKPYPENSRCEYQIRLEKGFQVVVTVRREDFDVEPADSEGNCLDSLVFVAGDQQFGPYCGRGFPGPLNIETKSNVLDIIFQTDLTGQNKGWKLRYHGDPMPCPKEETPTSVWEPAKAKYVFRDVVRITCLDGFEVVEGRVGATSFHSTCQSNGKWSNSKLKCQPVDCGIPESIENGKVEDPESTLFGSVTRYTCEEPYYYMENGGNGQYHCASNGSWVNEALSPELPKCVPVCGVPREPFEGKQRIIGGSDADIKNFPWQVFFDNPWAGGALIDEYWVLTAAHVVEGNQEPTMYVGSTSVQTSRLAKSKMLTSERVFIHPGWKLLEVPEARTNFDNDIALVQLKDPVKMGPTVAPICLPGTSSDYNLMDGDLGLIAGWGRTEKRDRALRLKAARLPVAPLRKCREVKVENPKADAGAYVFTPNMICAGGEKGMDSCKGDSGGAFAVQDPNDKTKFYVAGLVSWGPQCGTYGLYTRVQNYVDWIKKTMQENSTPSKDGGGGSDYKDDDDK
T1 chain 2: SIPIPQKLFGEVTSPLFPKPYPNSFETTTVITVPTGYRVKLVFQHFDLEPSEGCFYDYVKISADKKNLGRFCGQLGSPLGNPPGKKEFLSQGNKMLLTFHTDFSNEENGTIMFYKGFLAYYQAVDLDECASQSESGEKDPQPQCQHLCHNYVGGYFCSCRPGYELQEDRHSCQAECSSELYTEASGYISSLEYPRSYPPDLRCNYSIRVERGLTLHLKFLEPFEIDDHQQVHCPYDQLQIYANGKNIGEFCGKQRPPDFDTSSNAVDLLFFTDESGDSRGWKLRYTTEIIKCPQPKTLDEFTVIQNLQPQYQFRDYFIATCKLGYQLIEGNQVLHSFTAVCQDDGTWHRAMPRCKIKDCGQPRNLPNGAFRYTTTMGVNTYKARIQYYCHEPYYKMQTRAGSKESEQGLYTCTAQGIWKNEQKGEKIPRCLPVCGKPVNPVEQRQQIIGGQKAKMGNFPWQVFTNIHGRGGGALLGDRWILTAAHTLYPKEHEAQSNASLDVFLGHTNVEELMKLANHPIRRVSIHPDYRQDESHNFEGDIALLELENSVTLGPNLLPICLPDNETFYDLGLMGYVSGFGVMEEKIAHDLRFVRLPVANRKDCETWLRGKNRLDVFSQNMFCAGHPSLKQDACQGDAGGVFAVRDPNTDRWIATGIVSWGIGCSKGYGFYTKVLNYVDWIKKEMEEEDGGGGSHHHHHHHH
Description: (§1) The kinetic parameters of anti-C1s antibodies against recombinant human C1s (as described in PCT/JP2018/042054), human C1r2s2, and cyno C1r2s2 His/Flag (also referred as cyno C1r2s2 in the Table and Figures) were assessed at pH7.4 and pH5.8, at 37 degrees C. using BIACORE (registered trademark) T200 instrument (GE Healthcare) or BIACORE 4000 (GE Healthcare). ProAG (Pierce) was immobilized onto a CM4 sensorchip using amine coupling kit (GE Healthcare) according to the recommended settings by GE Healthcare. Antibodies and analytes were diluted into the respective running buffers, ACES pH7.4 and pH5.8 (20 mM ACES, 150 mM NaCl, 1.2 mM CaCl₂, 1 mg/ml BSA, 1 mg/ml CMD, 0.05% Tween 20, 0.005 w/v % NaN₃). Each antibody was captured onto the sensor surface by ProA/G. Antibody capture levels were typically 100-200 resonance units (RU). Then, recombinant C1s was injected at concentrations of 25 and 50 nM followed by dissociation at pH7.4 and pH5.8. The surface was regenerated using 10 mM Glycine-HCl, pH1.5. Kinetic parameters at neutral pH conditions and acidic conditions were determined by fitting the sensorgrams with 1:1 binding model using BIACORE (registered trademark) T200 Evaluation software, version 2.0 (GE Healthcare) or BIACORE 4000 Evaluation software. The dissociation rate at pH5.8 (after dissociation at pH7.4, indicated as pH5.8* in TABLE 2) was determined by processing and fitting data using Scrubber 2.0 (BioLogic Software) curve fitting software. The association rate (ka), dissociation rate (kd), binding affinity (KD) at pH7.4 and pH5.8 condition, and dissociation rate (kd) at pH5.8* condition of the antibodies are listed in TABLE 2. Some kinetic parameters of COS0098pHv1 in acidic condition were not correctly calculated because of its weak binding response.
(§2) Also, to observe the cross-reactivity of anti-C1s antibodies against human C1r2s2 and cyno C1r2s2 (cyno C1r2s2 His/Flag), BIACORE (registered trademark) kinetics analysis was performed.

[2] = biological target: T1, recombinant cyno C1r2s2 His/Flag …; experiment: SPR (Biacore), antibody captured on ProA/G, antigen as analyte, 37 C, pH7.4, 1.2 mM CaCl2
Description: as §1, §2

B1: COS0098bb (antibody, V domains shown)
VH: QSVEESGGRLVTPGTPLTLTCTVSGFSLTKYTVSWVRQAPGKGLEWIGIINTGGSAYYATWAKGRFTFSKTSTTVDLQITSPTTEDTATYFCARGNGDTDYTNLWGPGTLVTVSS
VL: QVLTQTPSSVSEPVGGTVTINCQASENIYSALAWYQQKPGQPPKLLIYGASNLESGVPSRFKGSGSGTQFTLTISDLECADAATYYCQQYYFTSSTFGGGTKVEIK
notes: Anti-C1s rabbit antibody, parent of COS0098pHv1; the antibody was captured by ProA/G; also called anti-C1s antibody COS0098bb
koff [1]: 0.000926 s⁻¹

B2: COS0098pHv1 (antibody, V domains shown)
VH: QVQLVQSGAEVKKPGSSVKVSCKASGHTFSKYTVSWIRQPPGKGLEWIGIINTGGSAYPATWAKGRVTITADESTSTAYMELSSLRSEDTAVYYCARGAGDTDYTNLWGQGTLVTVSS
VL: DIQMTQSPSSLSASVGDRVTITCQASENIYSALAWYQQKPGQPPKLLIYGASQLESGVPSRFSGSGSGTDFTLTISSLQPEDFATYYCQQYYFTSHTFGQGTKVEIK
notes: Humanized, optimized pH-dependent variant of COS0098bb
Kd [2]: 2.87 nM | koff [2]: 0.00125 s⁻¹ | kon [2]: 435000 M⁻¹ s⁻¹ | koff [1]: 0.0618 s⁻¹
